Data on one molecule can be found in article PMC11702627.

The experiment deals with T1, WT 4Ig-B7-H3-meGFP (and WT 4Ig-B7-H3-mCherry as the second copy) (human), Q5ZPR3.
T1 chain: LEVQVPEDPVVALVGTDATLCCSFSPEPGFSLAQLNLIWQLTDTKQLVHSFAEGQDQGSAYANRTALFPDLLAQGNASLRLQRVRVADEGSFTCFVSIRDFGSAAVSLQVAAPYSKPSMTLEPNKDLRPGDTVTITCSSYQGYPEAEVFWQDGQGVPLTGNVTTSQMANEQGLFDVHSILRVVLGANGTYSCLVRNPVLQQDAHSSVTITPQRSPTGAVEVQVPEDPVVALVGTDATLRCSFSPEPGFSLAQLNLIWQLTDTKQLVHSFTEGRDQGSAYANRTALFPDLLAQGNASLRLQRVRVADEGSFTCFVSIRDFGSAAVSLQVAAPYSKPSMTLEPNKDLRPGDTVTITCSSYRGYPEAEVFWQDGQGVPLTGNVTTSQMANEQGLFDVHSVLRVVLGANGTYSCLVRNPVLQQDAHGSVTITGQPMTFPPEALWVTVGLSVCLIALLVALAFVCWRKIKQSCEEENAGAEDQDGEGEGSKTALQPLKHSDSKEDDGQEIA
Description: FRET or BRET. Conditions: remark: other sources report otherwise. (In BRET a luciferase serves as donor, and the signal depends on an acceptor being close.)

B1: WT 4Ig-B7-H3-meGFP (and WT 4Ig-B7-H3-mCherry as the second copy), Q5ZPR3 29-534 (natural protein)
chain: LEVQVPEDPVVALVGTDATLCCSFSPEPGFSLAQLNLIWQLTDTKQLVHSFAEGQDQGSAYANRTALFPDLLAQGNASLRLQRVRVADEGSFTCFVSIRDFGSAAVSLQVAAPYSKPSMTLEPNKDLRPGDTVTITCSSYQGYPEAEVFWQDGQGVPLTGNVTTSQMANEQGLFDVHSILRVVLGANGTYSCLVRNPVLQQDAHSSVTITPQRSPTGAVEVQVPEDPVVALVGTDATLRCSFSPEPGFSLAQLNLIWQLTDTKQLVHSFTEGRDQGSAYANRTALFPDLLAQGNASLRLQRVRVADEGSFTCFVSIRDFGSAAVSLQVAAPYSKPSMTLEPNKDLRPGDTVTITCSSYRGYPEAEVFWQDGQGVPLTGNVTTSQMANEQGLFDVHSVLRVVLGANGTYSCLVRNPVLQQDAHGSVTITGQPMTFPPEALWVTVGLSVCLIALLVALAFVCWRKIKQSCEEENAGAEDQDGEGEGSKTALQPLKHSDSKEDDGQEIA
Consider B1, for which the abundance of dimeric complexes (1.3 ns lifetime population) was determined as 65%; the dimeric abundance (with MBCD 0.1 ug, 10 minutes) amounted to 26%; the dimeric abundance (without MBCD) was 48%; the dimeric lifetime abundance (with Vector-mCherry) is 56%.
